Assay results from patent US8450280B2, “Activation of peptide prodrugs by hK2” (GenbSpera, Inc., priority 1999, dated 2013).

Tests used:
Test in all cases: Kinetic constants of AMC substrate hydrolysis by hK2
Format in all cases: biochemical, human
Settings in all cases: other: 50 mM Tris pH 7.5, 0.1 M NaCl, 0.2% BSA, 37° C., Lineweaver-Burk
[1] = system: T1, Cc1cc(=O)oc2cc(NC(=O)[C@H](CCCNC(=N)N)NC(=O)[C@@H]3CCCN3C(=O)[C@@H](NC(=O)OC(C)(C)C)C(C)C)ccc12
T1 construct: made in house
Description: (§1) The measurements were done with Fluoroscan II (Labsystems, Helsinki, Finland) using a 355 nm excitation filter and a 460 nm emission filter. The fluorescence of 7-amino-4-methylcoumarin (AMC) (Sigma, St. Louis, Mo., USA) was determined to be 700 FIU/nmol and this value was used in the calculations of the rate of product formation. Unless otherwise indicated all final analyses were performed in 200 μl of the buffer 50 mM Tris pH 7.5, 0.1 M NaCl, and 0.2% BSA at 37° C. using 1.6 pmol hK2. BSA was added to the reaction mixture in order to minimize adsorption of the enzyme to the walls of the microtiter wells. The amount of hK2 was quantified by a commercial PSA immunoassay (Prostatus, Wallac, Turku, Finland) with the Mabs H1 17 and H50 which recognize PSA and hK2 equally well (Lovgren et al., Biochem. Biophys. Res. Co., 213, 888-895 (1995)). Under the conditions described, 1.6 pmol of the hK2 preparation cleaved 50 pmol/min of the 100 μM substrate Pro-Phe-Arg-AMC (SEQ ID NO: 55). During the 20 minute measurement time the consumption of the substrates is <7% of their total amount and was not considered to affect the reaction rate. Initial analysis of the substrates were performed with 3.2 pmol hK2 at a substrate concentration of 250 μM. Km value for the substrates cleaved by hK2 at these conditions were determined using at least four substrate concentrations ranging from 0.2×Km to 5×Km. The Km and kcat values were calculated from Lineweaver-Burk plots.
(§2) Substrates ending in either arginine or lysine were tested. […] However, no hydrolysis of Arg-Gln-Arg-Arg-AMC (SEQ ID NO: 63) was detected. […] As with the semenogelins, hK2 also here cleaves substrates with Arg at position P1 and preferentially a large residue or another Arg at position P2. None of the substrates with lysine in the C-terminal position were cleaved.
(§3) The activity listed in Table 1 is hydrolytic activity of hK2 with 100 μM substrate in relation to the hydrolytic activity of hK2 with 100 μM of the tissue kallikrein substrate H-Pro-Phe-Arg-AMC (SEQ ID NO: 55). The entry “NR” means that no reaction was detected.

[2] = system: T2, Cc1cc(=O)oc2cc(NC(=O)[C@H](CCCNC(=N)N)NC(=O)[C@H](CC(C)C)NC(=O)[C@H](CC(C)C)NC(=O)OCc3ccccc3)ccc12
T2 construct: made in house
Description: as §1, §2, §3

[3] = system: T3, Cc1cc(=O)oc2cc(NC(=O)[C@H](CCCNC(=N)N)NC(=O)[C@H](CCCNC(=N)N)NC(=O)[C@H](C)NC(=O)OCc3ccccc3)ccc12
T3 construct: made in house
Description: as §1, §2, §3

[4] = system: T4, Cc1cc(=O)oc2cc(NC(=O)[C@H](CCCNC(=N)N)NC(=O)[C@H](Cc3ccccc3)NC(=O)[C@@H]3CCCN3)ccc12
T4 construct: made in house
Description: as §1, §2, §3

recombinant hK2 (Homo sapiens) was tested, and the Km [1] was 48 µM, the kcat [1] was 0.0267 s⁻¹ and the kcat/Km [1] was 567 M⁻¹ s⁻¹. The Km [2] was 71 µM, the kcat [2] was 0.04 s⁻¹ and the kcat/Km [2] was 567 M⁻¹ s⁻¹. For the same substance, the Km [3] was 20 µM, the kcat [3] was 0.12 s⁻¹ and the kcat/Km [3] was 6000 M⁻¹ s⁻¹. For the same substance, the Km [4] was 40 µM, the kcat [4] was 0.917 s⁻¹ and the kcat/Km [4] was 22900 M⁻¹ s⁻¹.
